The numbers were not newly measured in PMC9190259, which cites them from elsewhere.

The series concerns the target TNFα (Homo sapiens) (UniProt P01375).
Sequence of UniProt P01375 (P01375 77-233): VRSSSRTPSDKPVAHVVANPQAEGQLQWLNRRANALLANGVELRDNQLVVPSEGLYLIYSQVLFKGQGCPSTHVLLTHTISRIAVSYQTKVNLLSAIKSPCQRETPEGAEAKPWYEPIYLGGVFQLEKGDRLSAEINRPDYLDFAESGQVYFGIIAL

As to Certolizumab Fab, the Kd was 0.09 nM.

For orientation: Kd means a measure of binding affinity in units of concentration.
